Measured values published in patent publication US20170037087.

Biological target: recombinant IL-8 (UniProt P10145)
Sequence (P10145 28-99): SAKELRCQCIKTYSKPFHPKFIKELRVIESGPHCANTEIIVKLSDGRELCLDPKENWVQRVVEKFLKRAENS

## SpyCEP in cell-free GAS culture supernatants
  IL-8 degradation (uncleaved IL-8 by ELISA): the IL-8 degrading activity of SpyCEP
